Measurements reported in US20230414709A1 (TRUSTEES OF COLUMBIA UNIVERSITY IN THE CITY OF NEW YORK, published 2023).
Positions count from the first letter of the chain named.

B1: K3 NGAL mutant protein (ligand)
chain: QDSTSDLIPAPPLSSVPLQQNFQDNQFQGKWYVVGLAGNAILREDEDPQKMYATIYELKEDKSYNVTSVLFRDDGCDYWIRTFVPGCQPGEFTLGNIQSYPGLTSYLVRVVSTNYNQFAMVFFKKVSQNQEYFKITLYGRTKELTSELQENFIRFSKSLGLPENNIVFPVPIDQCIDG
notes: Mutant of human NGAL, made in E. coli as for the wild type (GST fusion vector); Runs as monomer and dimer on Western blot; also called K6 (i.e, K3); Mut1
B2: K3Cys protein (ligand)
chain: B1 chain with C87S
notes: only monomers seen; also called K3Cys NGAL; Mut2
B3: wild-type human NGAL (Neutrophil Gelatinase-Associated Lipocalin) (ligand)
chain: B1 chain with S15K, E46K, D73K, D74K, G75K, Q98K, F118H, Q130R, Q149K, N165H
B4: NGAL mutant A1 (ligand)
chain: B1 chain with E46K, D73K, D74K, G75K, Q98K, F118H, Q130R, Q149K, N165H
B5: NGAL mutant K5 (ligand)
chain: B1 chain with D73K, D74K, G75K
B6: NGAL mutant H1 (ligand)
chain: B1 chain with S15K, E46K, D73K, D74K, G75K, Q98K, F118H, Q130R, Q149K
B7: NGAL mutant D1 (ligand)
chain: B1 chain with S15K, E46K, Q98K, F118H, Q130R, Q149K, N165H
B8: NGAL mutant A3 (ligand)
chain: QDSTSDLIPAPPLSKVPLQQNFQDNQFQGKWYVVGLAGNAILQEDKDPQKMYATIYELKEDKSYNVTSVLFRKKKCDYWIRTFVPGCQPGEFTLGNIKSYPGLTSYLVRVVSTNYNQHAMVFFKKVSQNREYFKITLYGRTKELTSELKENFIRFSKSLGLPENHIVFPVPIDQCIDG
B9: NGAL mutant K1 (ligand)
chain: B1 chain with K59Q, D73K, D74K, G75K
B10: NGAL mutant H3 (ligand)
chain: B8 chain with Q43R, H118F, K149Q, H165N
B11: NGAL mutant A2 (ligand)
chain: B8 chain with K15S, Q43R, R140Q, K142Q
B12: NGAL mutant F2 (ligand)
chain: B8 chain with Q43R, K46E, K59Q
B13: NGAL mutant C3 (ligand)
chain: B8 chain with K15S, Q43R, K50T, R72Q, K149Q, K157Q
B14: NGAL mutant I5 (ligand)
chain: B1 chain with E46K, K62G, Q98K, F118H, Q149K, N165H
B15: NGAL mutant H2 (ligand)
chain: B1 chain with E46K, D73K, D74K, G75K
B16: NGAL mutant I3 (ligand)
chain: B8 chain with Q43R, K62G, K73D, K74D, K75G, K98Q
B17: NGAL mutant G1 (ligand)
chain: B8 chain with K15S, K149Q
B18: NGAL mutant C1 (ligand)
chain: B8 chain with Q43R, K50T, R72Q, R130Q, K149Q, K157Q
B19: NGAL mutant B3 (ligand)
chain: B8 chain with Q43R, K46E, H165N
B20: NGAL mutant B1 (ligand)
chain: B8 chain with Q43R, K98Q, H118F, H165N
B21: NGAL mutant H5 (ligand)
chain: B8 chain with K15S, Q43R, K98Q, H165N
B22: NGAL mutant F4 (ligand)
chain: B8 chain with K15S, Q43R, K46E, K149Q
B23: NGAL mutant I1 (ligand)
chain: B1 chain with E46K, Q98K, F118H, Q149K, N165H
B24: NGAL mutant F5 (ligand)
chain: B8 chain with K15S, Q43R, K46E, K149Q, H165N
B25: NGAL mutant F1 (ligand)
chain: B8 chain with K15S, Q43R, K46E, K59Q
B26: NGAL mutant K2 (ligand)
chain: B1 chain with E46K
B27: NGAL mutant B4 (ligand)
chain: B8 chain with Q43R, K46E, K98Q
B28: NGAL mutant B2 (ligand)
chain: B8 chain with K15S, Q43R, K46E, H118F, H165N
B29: NGAL mutant D2 (ligand)
chain: B8 chain with Q43R, K62G
B30: NGAL mutant G3 (ligand)
chain: B8 chain with Q43R, K157Q
B31: NGAL mutant C5 (ligand)
chain: B8 chain with Q43R, R72Q, K157Q

The binders below were run against T1, mouse megalin (mouse, UniProt A2ARV4 26-4660) (assay: cell-based or functional assay).
T1 sequence (A2ARV4 26-4660 limits assumed): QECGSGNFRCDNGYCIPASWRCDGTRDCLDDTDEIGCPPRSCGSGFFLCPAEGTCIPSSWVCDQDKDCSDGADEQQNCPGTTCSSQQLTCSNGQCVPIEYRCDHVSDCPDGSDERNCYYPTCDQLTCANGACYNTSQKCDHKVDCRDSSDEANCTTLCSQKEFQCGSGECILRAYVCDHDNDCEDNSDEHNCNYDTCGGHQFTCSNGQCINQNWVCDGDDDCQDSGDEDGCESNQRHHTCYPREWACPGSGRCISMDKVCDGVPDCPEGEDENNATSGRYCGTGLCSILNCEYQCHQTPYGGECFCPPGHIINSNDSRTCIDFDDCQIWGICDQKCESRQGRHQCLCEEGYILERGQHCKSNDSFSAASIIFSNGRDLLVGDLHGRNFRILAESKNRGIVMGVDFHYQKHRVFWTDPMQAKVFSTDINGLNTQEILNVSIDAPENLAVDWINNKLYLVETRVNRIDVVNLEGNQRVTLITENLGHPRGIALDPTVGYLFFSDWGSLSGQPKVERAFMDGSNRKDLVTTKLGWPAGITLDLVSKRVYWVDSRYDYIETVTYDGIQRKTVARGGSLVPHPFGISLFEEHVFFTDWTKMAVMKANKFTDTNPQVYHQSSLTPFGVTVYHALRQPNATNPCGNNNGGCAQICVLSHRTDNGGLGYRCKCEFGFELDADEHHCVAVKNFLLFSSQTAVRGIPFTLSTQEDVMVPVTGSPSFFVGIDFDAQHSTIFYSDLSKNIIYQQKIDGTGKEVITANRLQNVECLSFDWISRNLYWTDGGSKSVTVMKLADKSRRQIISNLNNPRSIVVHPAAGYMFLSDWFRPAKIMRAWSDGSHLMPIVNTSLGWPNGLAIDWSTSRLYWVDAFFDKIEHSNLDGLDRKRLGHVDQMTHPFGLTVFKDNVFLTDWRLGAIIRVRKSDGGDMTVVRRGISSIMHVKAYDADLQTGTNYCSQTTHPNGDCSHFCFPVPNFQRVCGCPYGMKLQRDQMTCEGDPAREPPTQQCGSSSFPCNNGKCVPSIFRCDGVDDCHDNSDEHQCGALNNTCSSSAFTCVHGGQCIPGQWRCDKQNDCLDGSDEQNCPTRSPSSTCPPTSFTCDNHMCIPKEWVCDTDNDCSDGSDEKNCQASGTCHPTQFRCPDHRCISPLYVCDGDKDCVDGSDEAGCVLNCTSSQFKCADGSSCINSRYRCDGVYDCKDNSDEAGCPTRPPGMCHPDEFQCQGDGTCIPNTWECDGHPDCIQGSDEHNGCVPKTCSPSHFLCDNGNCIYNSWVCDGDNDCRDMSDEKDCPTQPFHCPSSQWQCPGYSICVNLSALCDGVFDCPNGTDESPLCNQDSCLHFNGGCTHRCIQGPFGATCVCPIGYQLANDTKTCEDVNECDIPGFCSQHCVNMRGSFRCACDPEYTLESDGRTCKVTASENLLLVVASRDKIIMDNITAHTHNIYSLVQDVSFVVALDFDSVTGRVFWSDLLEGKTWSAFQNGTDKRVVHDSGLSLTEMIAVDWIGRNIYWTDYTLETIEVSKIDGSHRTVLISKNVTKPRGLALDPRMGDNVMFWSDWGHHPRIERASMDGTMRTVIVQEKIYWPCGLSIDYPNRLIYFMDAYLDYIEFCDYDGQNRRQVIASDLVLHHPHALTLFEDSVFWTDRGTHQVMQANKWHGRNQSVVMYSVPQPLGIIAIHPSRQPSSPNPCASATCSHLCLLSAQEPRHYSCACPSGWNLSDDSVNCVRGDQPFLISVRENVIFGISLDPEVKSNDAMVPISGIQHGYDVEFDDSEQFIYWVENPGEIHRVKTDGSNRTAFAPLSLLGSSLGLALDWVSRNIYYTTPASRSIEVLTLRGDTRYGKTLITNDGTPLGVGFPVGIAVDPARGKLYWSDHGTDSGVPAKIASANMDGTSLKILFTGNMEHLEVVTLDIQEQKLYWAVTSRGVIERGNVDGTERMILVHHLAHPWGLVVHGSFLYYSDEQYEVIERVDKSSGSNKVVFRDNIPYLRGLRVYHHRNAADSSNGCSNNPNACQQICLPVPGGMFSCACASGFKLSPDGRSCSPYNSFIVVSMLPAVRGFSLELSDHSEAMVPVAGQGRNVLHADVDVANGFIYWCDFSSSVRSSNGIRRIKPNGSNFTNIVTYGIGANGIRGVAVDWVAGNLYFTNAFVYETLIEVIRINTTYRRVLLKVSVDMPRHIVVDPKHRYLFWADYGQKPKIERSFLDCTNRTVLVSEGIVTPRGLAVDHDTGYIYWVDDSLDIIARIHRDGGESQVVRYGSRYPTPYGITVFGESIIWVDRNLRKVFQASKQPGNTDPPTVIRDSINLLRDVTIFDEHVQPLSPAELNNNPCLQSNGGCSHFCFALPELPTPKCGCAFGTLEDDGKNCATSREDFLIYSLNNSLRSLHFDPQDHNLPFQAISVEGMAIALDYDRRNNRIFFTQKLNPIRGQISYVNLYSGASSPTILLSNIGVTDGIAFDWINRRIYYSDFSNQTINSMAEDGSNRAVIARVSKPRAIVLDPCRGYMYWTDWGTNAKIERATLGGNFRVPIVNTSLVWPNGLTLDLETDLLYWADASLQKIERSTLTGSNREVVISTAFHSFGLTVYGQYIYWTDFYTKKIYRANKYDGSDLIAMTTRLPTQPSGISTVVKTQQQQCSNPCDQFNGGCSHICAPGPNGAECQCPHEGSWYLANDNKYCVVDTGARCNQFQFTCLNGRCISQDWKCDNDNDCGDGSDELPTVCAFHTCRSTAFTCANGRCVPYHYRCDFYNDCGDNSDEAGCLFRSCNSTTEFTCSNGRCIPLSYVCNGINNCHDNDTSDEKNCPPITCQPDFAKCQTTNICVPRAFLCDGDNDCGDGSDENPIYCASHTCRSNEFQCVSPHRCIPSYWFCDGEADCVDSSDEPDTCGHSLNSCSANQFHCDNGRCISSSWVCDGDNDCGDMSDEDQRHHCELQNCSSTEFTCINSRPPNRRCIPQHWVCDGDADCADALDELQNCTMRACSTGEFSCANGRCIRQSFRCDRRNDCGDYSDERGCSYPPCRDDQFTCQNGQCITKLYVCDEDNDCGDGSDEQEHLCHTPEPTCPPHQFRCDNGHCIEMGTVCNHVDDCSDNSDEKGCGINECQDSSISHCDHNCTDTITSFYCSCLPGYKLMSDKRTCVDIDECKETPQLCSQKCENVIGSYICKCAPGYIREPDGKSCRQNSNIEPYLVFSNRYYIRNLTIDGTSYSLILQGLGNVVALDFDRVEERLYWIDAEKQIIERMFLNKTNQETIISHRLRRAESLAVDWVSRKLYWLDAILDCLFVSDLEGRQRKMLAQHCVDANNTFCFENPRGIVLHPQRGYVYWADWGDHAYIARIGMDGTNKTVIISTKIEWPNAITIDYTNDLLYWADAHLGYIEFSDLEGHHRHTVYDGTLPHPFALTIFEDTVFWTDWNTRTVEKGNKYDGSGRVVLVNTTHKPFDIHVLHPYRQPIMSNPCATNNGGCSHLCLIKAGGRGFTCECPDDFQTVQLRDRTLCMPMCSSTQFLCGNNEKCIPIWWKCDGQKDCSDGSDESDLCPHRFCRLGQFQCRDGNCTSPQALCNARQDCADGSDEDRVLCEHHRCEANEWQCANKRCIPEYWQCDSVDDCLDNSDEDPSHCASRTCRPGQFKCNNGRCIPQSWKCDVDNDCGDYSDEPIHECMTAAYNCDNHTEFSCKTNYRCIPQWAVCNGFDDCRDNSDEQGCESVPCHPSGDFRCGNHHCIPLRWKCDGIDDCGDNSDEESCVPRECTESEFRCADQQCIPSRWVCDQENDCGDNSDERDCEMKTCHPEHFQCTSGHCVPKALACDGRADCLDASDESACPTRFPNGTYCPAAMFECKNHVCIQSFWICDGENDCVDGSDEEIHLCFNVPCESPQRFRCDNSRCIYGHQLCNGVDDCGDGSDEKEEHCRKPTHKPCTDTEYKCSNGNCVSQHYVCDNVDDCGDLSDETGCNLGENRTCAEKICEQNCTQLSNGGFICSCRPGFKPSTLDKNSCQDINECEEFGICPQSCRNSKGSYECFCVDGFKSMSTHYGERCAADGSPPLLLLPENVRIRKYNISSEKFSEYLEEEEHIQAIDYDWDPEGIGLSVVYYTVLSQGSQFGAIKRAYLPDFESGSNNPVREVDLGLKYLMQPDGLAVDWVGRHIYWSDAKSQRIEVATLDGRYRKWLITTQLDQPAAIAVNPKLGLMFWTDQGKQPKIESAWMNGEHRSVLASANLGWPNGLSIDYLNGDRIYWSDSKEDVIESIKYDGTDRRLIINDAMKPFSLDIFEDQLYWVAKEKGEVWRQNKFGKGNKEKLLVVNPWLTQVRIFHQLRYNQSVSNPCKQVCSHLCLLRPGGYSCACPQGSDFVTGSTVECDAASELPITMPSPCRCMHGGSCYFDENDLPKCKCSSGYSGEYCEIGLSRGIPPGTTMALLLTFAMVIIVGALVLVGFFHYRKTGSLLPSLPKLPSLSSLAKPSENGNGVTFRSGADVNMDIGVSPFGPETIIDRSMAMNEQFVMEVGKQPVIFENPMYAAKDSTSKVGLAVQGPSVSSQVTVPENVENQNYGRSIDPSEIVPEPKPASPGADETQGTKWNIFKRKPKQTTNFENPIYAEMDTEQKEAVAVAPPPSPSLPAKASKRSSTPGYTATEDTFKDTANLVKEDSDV

percent of injected Ngal:Ent:59FeIII complex delivered to mouse urine in 3 hrs [%]	Binder
23	B1
~100	B2
< 0.1	B3

Target: T1, mouse megalin
Assay: cell-based or functional assay
Remark: another data set of the same source

Accumulation 3 hours after i.p. injection (%): Urine (Ngal-enterochelin-55Fe3+ complex, C57BL/6 mice) [%]	Binder
0.55	B4
2.9	B5
0.37	B6
0.1	B7
0.23	B8
19.6	B1
1.9	B9
0.3	B10
0.18	B11
0.11	B12
0.44	B13
0.05	B14
0.27	B15
6.9	B16
0.28	B17
0.72	B18
0.3	B19
0.22	B20
0.24	B21
1.65	B22
6	B23
1.23	B24
0.51	B25
9.6	B26
0.13	B27
1.22	B28
0.11	B29
0.17	B30
0.26	B31

Target: the molecule itself
Assay: Western blot of purified NGAL and of NGAL recovered from mouse urine, homodimer band against monomer band
Protocol: FIGS. 22A-22B. FIG. 22A. Left: Western blot of different species of NGAL. Wild type NGAL forms protein dimers (46-50 KDa) from monomers (at 23-25 KDa). Similarly the Mutant1 (K3 NGAL) forms dimers from monomers. However, Mutant2 (K3Cys) only forms monomers. Right. NGAL proteins (Wt, Mut1 and Mut2) were injected into mice, and the NGAL proteins in the urine (uWt=urinary wild-type protein; uMut1=urinary Mut1 K3 and uMut2=urinary Mut2 K3Cys) were collected at two different time points, and analyzed by Western Blot. For each protein (uWt, uMut1 and uMut2), the 1st lane on the Western blot represents proteins that were collected in the urine 20 min. after the injection and the 2nd lane on the Western blot represents proteins that were collected from the mouse at 180 min. after the injection. Very low levels of uWt appear in urine, whereas higher levels of both uMut1 and uMut2 appear in urine. uMut1 forms both monomers and dimers, whereas uMut2 only forms monomers. FIG. 22B. Mice were injected with NGAL proteins (Wt, Mut1 and Mut2) that were labeled with the dye Alexa Fluor™ 568 (Molecular Probes-Invitrogen), which covalently attaches to the proteins. […]

Binder	binding result
B1	binds
B2	no binding
